# Assay results from US6506732B1, “Enzymatic hydrolysate of milk proteins” (Universite Laval, priority 1999, dated 2003).
# Assay: Hydrophobicity of peptides of subfraction SF4
# Format: physicochemical
# Conditions: single peptides of subfraction SF4
# Procedure: Further separation of the third fraction (F3) on preparative High Pressure Liquid Chromatography (HPLC) using TSK G2000 SW column and a 5 mM ammonium acetate buffer mobile phase adjusted to pH 6.5 gives five subfractions (SF1 to SF5). Composition of subfraction four (SF4), obtained by RP-HPLC using C-18™ column, containing fifteen peptides having average molecular weight of 900 daltons (200 to 1400 daltons) and average hydrophobicity of 11.7 Kcal/mole (5 to 20 Kcal/mole) is presented in Table 2.
row,Substance,Hydrophobicity [kcal/mol]
1,"ALPQYL (Peptide from enzymatic hydrolysate of milk proteins) [Casein α-s2 175-180, peptide of SF4]",10.9
2,"INNQFLPYPY (Peptide from enzymatic hydrolysate of milk proteins) [Casein κ 51-60, peptide of SF4]",19.9
3,"IPIQY (Peptide from enzymatic hydrolysate of milk proteins) [Casein κ 26-30, peptide of SF4]",11.3
4,"LLY (UniProt P02666 206-208, looked up, fragment) [Casein β 191-193, peptide of SF4]",7.7
5,"LQSW (Peptide from enzymatic hydrolysate of milk proteins) [Casein β 140-143, peptide of SF4]",5.3
6,"LYQEPVL (Peptide from enzymatic hydrolysate of milk proteins) [Casein β 192-198, peptide of SF4]",9.3
7,"LYQGPIVL (Peptide from enzymatic hydrolysate of milk proteins) [Casein α-s2 99-106, peptide of SF4]",17.7
8,"QGPIVLNPW (Peptide from enzymatic hydrolysate of milk proteins) [Casein α-s2 101-109, peptide of SF4]",15.1
9,"SPAQILQWQVL (Peptide from enzymatic hydrolysate of milk proteins) [Casein κ 69-79, peptide of SF4]",15.5
10,"VLPVPQK (Peptide from enzymatic hydrolysate of milk proteins) [Casein β 170-176, peptide of SF4]",12.3
11,"VLVL (Peptide from enzymatic hydrolysate of milk proteins) [β-Lactoglobulin 92-95, peptide of SF4]",8.2
12,"VPLGTQY (Peptide from enzymatic hydrolysate of milk proteins) [Casein α-s1 167-173, peptide of SF4]",9.9
13,"YGLNYYQQKPVA (Peptide from enzymatic hydrolysate of milk proteins) [Casein κ 38-49, peptide of SF4]",14.4
14,"YL: Casein α-s1 91-92, peptide of SF4 (UniProt P02662 106-107, looked up, fragment)",5.3
15,"YVPLGTQY (Peptide from enzymatic hydrolysate of milk proteins) [Casein α-s1 166-173, peptide of SF4]",12.7
